Results: patent US20130108642A1 (LOS ANGELES BIOMEDICAL RESEARCH INSTITUTE AT HARBOR UCLA …, published 2013)

How the values were obtained:
recombinant human Grp78 = biological target: T1, recombinant human Grp78 (human, UniProt P11021 19-654); assay: FAR Western blot with recombinant human Grp78 and anti-Grp78 Ab; bands identified by MALDI-TOF-MS/MS
T1 construct: Soluble probe in the FAR Western blot, detected with anti-Grp78 Ab; also called rGrp78; Grp78p

[1] = biological target: T2, endothelial cell surface GRP78 (human umbilical vein endothelial cells) (human, UniProt P11021 19-654); assay: pull-down of biotin-labeled endothelial cell surface proteins by yeast cells, immunoblot with anti-GRP78 Ab
T2 construct: whole, on cells; In the adherence and endocytosis assays it is on intact endothelial cells; also called endothelial cell GRP78; Glucose Regulated Protein 78
T2 sequence (P11021 19-654): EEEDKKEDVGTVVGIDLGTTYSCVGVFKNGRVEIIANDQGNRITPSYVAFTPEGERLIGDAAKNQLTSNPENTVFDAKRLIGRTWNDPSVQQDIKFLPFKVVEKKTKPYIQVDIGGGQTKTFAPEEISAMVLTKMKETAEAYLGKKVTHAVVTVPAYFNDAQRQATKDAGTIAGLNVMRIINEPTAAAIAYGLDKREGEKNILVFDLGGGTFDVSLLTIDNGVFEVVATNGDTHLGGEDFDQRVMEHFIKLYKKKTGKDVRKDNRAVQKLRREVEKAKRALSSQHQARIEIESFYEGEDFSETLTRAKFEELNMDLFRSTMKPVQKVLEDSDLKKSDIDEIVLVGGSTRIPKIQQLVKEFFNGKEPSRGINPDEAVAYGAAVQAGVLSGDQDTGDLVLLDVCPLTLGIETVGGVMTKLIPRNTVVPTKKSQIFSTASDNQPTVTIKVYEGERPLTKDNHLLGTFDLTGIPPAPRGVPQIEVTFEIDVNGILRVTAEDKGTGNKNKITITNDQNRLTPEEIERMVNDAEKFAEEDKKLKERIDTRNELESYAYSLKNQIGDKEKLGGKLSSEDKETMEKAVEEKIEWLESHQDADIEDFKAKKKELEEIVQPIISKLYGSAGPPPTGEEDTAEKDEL

T1 sequence (P11021 19-654 limits assumed): as the sequence (P11021 19-654) above

B1: CotH2 (RO3G-08029), native protein in cell wall material from supernatants of R. oryzae germling protoplasts (other)
chain: ASVQFNLIAPSATDVKVSVNGQQVALTASDPNVPYFTGSAEVGGTEESFERSLAGITNSTFNDFYNRPVTYANLPQLPWPIENDPQWTRKGKKAEIFDDNYIPSVFFHGDDSQVQDLVKNVPKDKVTGTLTFIGSNYVHSFANVSFGIHGAGKKHNNAKQSWKWTLSGTDTMGNRNHFKLRHMEEDPTQIRERLYADILHAMGTYANETTMVRLFINGQGFGTFNMLDDITEFSYINAMFYGGNPPATLGPLFDGASGADFIYHPGNLDGYSSWKPNKDNANGEGYEAFDPLCKAWNETDYTDNTAIANFEKMFDTEHFLRFMVIEYLTAHWDGYWMGQTNDGAYRDPSDNNKWYFLDQDFDATFGVNLDVPENKDFISVSYKDFPSRYPAGVMANGLLQNADKKAKFEQYLTETVRVLFNNVTLTNRVLAIHNFLSPDLEWDRSIVQQSPGTNFGWTFEQTSQNLWQGVSAPNNNGGGAEWGLVEYIAAKSQAMAKEFNITIVSEPVGPPAANGTATSTNDGGNTHTAAGESKPASSSESSGSKIASQSVS
notes: Protein on the FAR Western blot, identified by MALDI-TOF-MS/MS of excised bands; also called R. oryzae ligand; R. oryzae surface protein
Recombinant human Grp78
  binding result: binds

B2: CotH3 (RO3G-11882), native protein in cell wall material from supernatants of R. oryzae germling protoplasts (other)
chain: ASIKFNVIAPNATDVKVSVNGQQVTLTASDANVPYFTGSAEVGASKTYKYVAGGTEESFDRSLDGITNSTLNDFYNRPVTYANLPQLPWPIEKDPQWTRSGSKADIFDDNYIPSVFFHGDDSQVQNVVKNVPADRISGTLTFIGSNYVYSFQNVSFGIHGAGKKHNNAKQSWNWILSGSDTMGNRNFFKLRHMEEDPTQIRERLYSDILHAMGTYANDATMVRLFINNQGFGTFNMLDDITQFSYINAKFYNGKPPATLGPLYDGASGADFLYHPGNLDGYSSWVANTANPNGEAYEALDPLCKAWNETTYTDNTAIANFEKMFDLDRFMRFMVIEYLTADWDGYWMGQTNDGAYRDPTDNNKWYFLDQDFDGTFGVNLAAPEGNAFLDVSYKDFPSRYPGAVMINNLLQNADKKATFEKYLTETVRVLFNNVTLTNRVLALHNFLLPDLEWDRSIVQQSPGINFGWTFDQVTQNLWQGVTAPNNNGGGAAFGLVEYIAAKAQAVAKEFNISIVSQPVGPPSANGTTAAAPAPAAGNSTGKGGNQSISSSASSNKTSAQSTS
notes: as for B1
Recombinant human Grp78
  binding result: binds

B3: CotH1 (RO3G-05018) from R. oryzae, on the cell surface of S. cerevisiae (other)
chain: AKVSFKVIAPDAKNRVHVNINGVLVELKASDPDVPYYTGFAELKHGQSYNYVVDGNAEPFKRLLNGSSTKNEFFNRPVTYATNIPELPSILTEGSWTRGDTSNPIWDSNYVPSIFVTGNPREMNELIENVKKNTYKTKITFIGPETINTFEGCTLGLHKPGRKHNDAKQSWIWALPEGQFMANRNWFKIRHMEEDPTQLREKLYADILRKMGTYANEANMVRFFINKEGMGIFNMLDDVIMYSYINAMFYHGDTPEQLGGLYDGASGASFNFPGDFDSFIPNVESPLDQDAIEPFSKAFTSIDFLEDEQVKTIGKYFDYDQFLRFMVMEFLTGDWDGYWQEQTNDGAYIDINDHNKIYYLGQDFDATFGVNLEQKREFVNVSYTEYPKLFPGGVLINRLLQNPGVKKTFENYLKITVQEIFNNATLGPYVTARHEFLAPDLQWDRSIKQRSPGNIFGWTFEQTYENLFEGVTAPGKNSGGADWGLLEWVAAKEKAVKSYLSSSEAADAATVTQVPEAPGTDGTPSESTAWPHANTRFRQAEASNTHKIGTSSPSNFIVKIKQGTVSS
notes: also called S. cerevisiae expressing CotH1
[1]
  binding result: no binding
